B1: GpH7-A5/GpH7-B3 variant I336_18N/GpL16-k0 (antibody, human IgG1, kappa)
heavy 1: not shown
heavy 2: not shown
light: DIVMTQSPLSLPVTPGEPASISCQASESLVHSNRNTYLHWYLQKPGQSPQLLIYKVSNRFSGVPDRFSGSGSGTDFTLKISRVEAEDVGVYYCSQNTHVPPTFGQGTKVEIERTVAAPSVFIFPPSDEQLKSGTASVVCLLNNFYPREAKVQWKVDNALQSGNSQESVTEQDSKDSTYSLSSTLTLSKADYEKHKVYACEVTHQGLSSPVTKSFNRGEC
notes: heterodimerized IgG1, mutation in one H chain only; also called He Ab
B2: GpH7-A5/GpH7-B3 variant K334_14T/GpL16-k0 (antibody, human IgG1, kappa)
heavy 1: not shown
heavy 2: not shown
light: B1 light
notes: as for B1
B3: GpH7-A5/GpH7-B3 variant I336_02A/GpL16-k0 (antibody, human IgG1, kappa)
heavy 1: not shown
heavy 2: not shown
light: B1 light
notes: as for B1
B4: GpH7-A5/GpH7-B3 variant I336_10E/GpL16-k0 (antibody, human IgG1, kappa)
heavy 1: not shown
heavy 2: not shown
light: B1 light
notes: as for B1
B5: GpH7-A5/GpH7-B3 variant S337_18N/GpL16-k0 (antibody, human IgG1, kappa)
heavy 1: not shown
heavy 2: not shown
light: B1 light
notes: as for B1
B6: GpH7-A5/GpH7-B3 variant I336_09D/GpL16-k0 (antibody, human IgG1, kappa)
heavy 1: not shown
heavy 2: not shown
light: B1 light
notes: as for B1
B7: GpH7-A5/GpH7-B3 variant K334_07I/GpL16-k0 (antibody, human IgG1, kappa)
heavy 1: not shown
heavy 2: not shown
light: B1 light
notes: as for B1
B8: GpH7-A5/GpH7-B3 variant S267_09D/GpL16-k0 (antibody, human IgG1, kappa)
heavy 1: not shown
heavy 2: not shown
light: B1 light
notes: as for B1
B9: GpH7-A5/GpH7-B3 variant I332_10E/GpL16-k0 (antibody, human IgG1, kappa)
heavy 1: not shown
heavy 2: not shown
light: B1 light
notes: as for B1
B10: GpH7-A5/GpH7-B3 variant K326_09D/GpL16-k0 (antibody, human IgG1, kappa)
heavy 1: not shown
heavy 2: not shown
light: B1 light
notes: as for B1
B11: GpH7-A5/GpH7-B3 variant I332_01G/GpL16-k0 (antibody, human IgG1, kappa)
heavy 1: not shown
heavy 2: not shown
light: B1 light
notes: as for B1
B12: GpH7-A5/GpH7-B3 variant K326_07I/GpL16-k0 (antibody, human IgG1, kappa)
heavy 1: not shown
heavy 2: not shown
light: B1 light
notes: as for B1
B13: GpH7-A5/GpH7-B3 variant K334_08L/GpL16-k0 (antibody, human IgG1, kappa)
heavy 1: not shown
heavy 2: not shown
light: B1 light
notes: as for B1
B14: GpH7-A5/GpH7-B3 variant K326_14T/GpL16-k0 (antibody, human IgG1, kappa)
heavy 1: not shown
heavy 2: not shown
light: B1 light
notes: as for B1
B15: GpH7-A5/GpH7-B3 variant S337_09D/GpL16-k0 (antibody, human IgG1, kappa)
heavy 1: not shown
heavy 2: not shown
light: B1 light
notes: as for B1
B16: GpH7-A5/GpH7-B3 variant K326_15Y/GpL16-k0 (antibody, human IgG1, kappa)
heavy 1: not shown
heavy 2: not shown
light: B1 light
notes: as for B1
B17: GpH7-A5/GpH7-B3 variant K326_04F/GpL16-k0 (antibody, human IgG1, kappa)
heavy 1: not shown
heavy 2: not shown
light: B1 light
notes: as for B1
B18: GpH7-A5/GpH7-B3 variant H268_09D/GpL16-k0 (antibody, human IgG1, kappa)
heavy 1: not shown
heavy 2: not shown
light: B1 light
notes: as for B1
B19: GpH7-A5/GpH7-B3 variant K334_15Y/GpL16-k0 (antibody, human IgG1, kappa)
heavy 1: not shown
heavy 2: not shown
light: B1 light
notes: as for B1
B20: GpH7-A5/GpH7-B3 variant I332_19Q/GpL16-k0 (antibody, human IgG1, kappa)
heavy 1: not shown
heavy 2: not shown
light: B1 light
notes: as for B1
B21: GpH7-A5/GpH7-B3 variant S298_14T/GpL16-k0 (antibody, human IgG1, kappa)
heavy 1: not shown
heavy 2: not shown
light: B1 light
notes: as for B1
B22: GpH7-A5/GpH7-B3 variant I332_15Y/GpL16-k0 (antibody, human IgG1, kappa)
heavy 1: not shown
heavy 2: not shown
light: B1 light
notes: as for B1
B23: GpH7-A5/GpH7-B3 variant S239_09D/GpL16-k0 (antibody, human IgG1, kappa)
heavy 1: not shown
heavy 2: not shown
light: B1 light
notes: as for B1
B24: GpH7-A5/GpH7-B3 variant Q295_10E/GpL16-k0 (antibody, human IgG1, kappa)
heavy 1: not shown
heavy 2: not shown
light: B1 light
notes: as for B1
B25: GpH7-A5/GpH7-B3 variant K326_08L/GpL16-k0 (antibody, human IgG1, kappa)
heavy 1: not shown
heavy 2: not shown
light: B1 light
notes: as for B1
B26: GpH7-A5/GpH7-B3 variant I336_13S/GpL16-k0 (antibody, human IgG1, kappa)
heavy 1: not shown
heavy 2: not shown
light: B1 light
notes: as for B1
B27: GpH7-A5/GpH7-B3 variant H268_10E/GpL16-k0 (antibody, human IgG1, kappa)
heavy 1: not shown
heavy 2: not shown
light: B1 light
notes: as for B1
B28: GpH7-A5/GpH7-B3 variant I332_13S/GpL16-k0 (antibody, human IgG1, kappa)
heavy 1: not shown
heavy 2: not shown
light: B1 light
notes: as for B1
B29: GpH7-A5/GpH7-B3 variant A330_04F/GpL16-k0 (antibody, human IgG1, kappa)
heavy 1: not shown
heavy 2: not shown
light: B1 light
notes: as for B1
B30: GpH7-A5/GpH7-B3 variant K334_05P/GpL16-k0 (antibody, human IgG1, kappa)
heavy 1: not shown
heavy 2: not shown
light: B1 light
notes: as for B1

Target: T1, FcγRIIIa extracellular domain with C-terminal His tag (human, UniProt P08637 17-208)
T1 construct: extracellular domain; also called FcgRIIIa; 3a
Test: SPR, relative to GpH7-A5/GpH7-B3/GpL16-k0

T1 sequence (P08637 17-208): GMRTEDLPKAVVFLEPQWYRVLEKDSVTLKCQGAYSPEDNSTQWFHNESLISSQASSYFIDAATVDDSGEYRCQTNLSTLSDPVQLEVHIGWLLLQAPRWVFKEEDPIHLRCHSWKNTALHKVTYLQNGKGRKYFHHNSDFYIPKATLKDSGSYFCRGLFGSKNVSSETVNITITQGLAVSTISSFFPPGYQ

| He/Con_3a | Binder |
| --- | --- |
| 104 % of control (=100) | B1 |
| 141 % of control (=100) | B2 |
| 111 % of control (=100) | B3 |
| 119 % of control (=100) | B4 |
| 104 % of control (=100) | B5 |
| 106 % of control (=100) | B6 |
| 151 % of control (=100) | B7 |
| 181 % of control (=100) | B8 |
| 233 % of control (=100) | B9 |
| 134 % of control (=100) | B10 |
| 111 % of control (=100) | B11 |
| 139 % of control (=100) | B12 |
| 143 % of control (=100) | B13 |
| 126 % of control (=100) | B14 |
| 110 % of control (=100) | B15 |
| 112 % of control (=100) | B16 |
| 103 % of control (=100) | B17 |
| 197 % of control (=100) | B18 |
| 141 % of control (=100) | B19 |
| 110 % of control (=100) | B20 |
| 113 % of control (=100) | B21 |
| 101 % of control (=100) | B22 |
| 166 % of control (=100) | B23 |
| 100 % of control (=100) | B24 |
| 114 % of control (=100) | B25 |
| 102 % of control (=100) | B26 |
| 186 % of control (=100) | B27 |
| 104 % of control (=100) | B28 |
| 147 % of control (=100) | B29 |
| 134 % of control (=100) | B30 |

Source: patent US20180155451A1 (published 2018)
